The record followed here is patent US20150203577A1 (Chugai, published 2015).

Assay [1] deals with T1, mouse FcγRIII extracellular domain, C-terminal His tag (mouse, UniProt P08508 31-215).
T1 construct: Whole entry named; also called mFcγRIII; mFcgRIII
T1 chain: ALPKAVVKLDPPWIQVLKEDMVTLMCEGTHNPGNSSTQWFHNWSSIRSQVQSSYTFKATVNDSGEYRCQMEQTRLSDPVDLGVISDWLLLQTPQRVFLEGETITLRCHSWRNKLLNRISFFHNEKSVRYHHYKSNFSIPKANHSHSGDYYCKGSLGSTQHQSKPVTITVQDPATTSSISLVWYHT
In words: SPR (Biacore T200); KD of H237-mIgG1/MRAL-k0 / KD of variant. The method, then:
(§1) Each altered antibody was analyzed for its interaction with each Fcγ receptor prepared above using Biacore T100 (GE Healthcare Japan Corp.), Biacore T200 (GE Healthcare Japan Corp.), Biacore A100, or Biacore 4000. The running buffer used was HBS-EP+ (GE Healthcare Japan Corp.). The assay temperature was set to 25° C. The sensor chips used were chips prepared by immobilizing Protein L (ACTIGEN or BioVision) onto Series S Sensor Chip CM5 (GE Healthcare Japan Corp.) or Series S Sensor Chip CM4 (GE Healthcare Japan Corp.) by the amine coupling method.
(§2) In order to calculate the KD value of each altered antibody for FcγR, kinetic analysis was conducted according to the following method: first, the antibody of interest was captured onto any of these chips and allowed to interact with mFcγR diluted with a running buffer. For the obtained sensorgram, the assay results were globally fit into the 1:1 Langmuir binding model using Biacore Evaluation Software to calculate an association rate constant ka (L/mol/s) and a dissociation rate constant kd (1/s). From these values, the dissociation constant KD (mol/L) was calculated.

The target in assay [2] is T2, mouse FcγRII extracellular domain, C-terminal His tag (mouse, UniProt P08101 30-210).
T2 construct: Whole entry named; also called mFcγRII; mFcgRII
T2 sequence: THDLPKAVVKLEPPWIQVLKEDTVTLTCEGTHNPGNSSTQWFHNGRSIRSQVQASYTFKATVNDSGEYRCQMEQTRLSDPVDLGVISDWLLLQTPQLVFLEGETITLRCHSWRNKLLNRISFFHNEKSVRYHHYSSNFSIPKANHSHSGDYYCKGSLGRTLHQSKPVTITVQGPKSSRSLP
In words: SPR (Biacore T200), 1:1 fit. The method, then: as §1, §2
Background: Surface plasmon resonance follows binding to a sensor surface in real time, without labels.

For assay [3], the target named is T1, mouse FcγRIII extracellular domain, …. In words: SPR (Biacore T200), 1:1 fit. The method, then: as §1, §2

B1: H237-MB532/MRAL-k0 (antibody, mouse IgG1, kappa)
heavy: QVQLQESGPGLVKPSETLSLTCAVSGHSISHDHAWSWVRQPPGEGLEWIGFISYSGITNYNPSLQGRVTISRDNSKNTLYLQMNSLRAEDTAVYYCARSLARTTAMDYWGEGTLVTVSSAKTTPPSVYPLAPGSAAQTNSMVTLGCLVKGYFPEPVTVTWNSGSLSSGVHTFPAVLQSDLYTLSSSVTVPSSTWPSETVTCNVAHPASSTKVDKKIVPRDCGCKPCICQPNEVEEVFIFPPKPKDVLTITLTPKVTCVVVDISKDDPEVQFSWFVDDVEVHTAQTQPREEQFNSTFRSVSELPIMHQDWLNGKEFKCRVNSDAFPAPIERTISKTKGRPKAPQVYTIPPPKEQMAKDKVSLTCMITDFFPEDITVEWQWNGQPAENYKNTQPIMDTDGSYFVYSKLNVQKSNWEAGNTFTCSVLHEGLHNHHTEKSLSHSPGK
light: not shown
notes: copies: 2 + 2
One may read the Kd as the equilibrium constant for the complex coming apart. High values mean lower affinity, low ones higher affinity. With B1, the “relative mFcγRIII-binding activity (mIgG1 = 1)” value in assay [1] is 6.2 fold. For the same molecule, the Kd in assay [2] came out at 0.639 nM; in assay [3] it was 45.4 nM.

B2: H237-MB544/MRAL-k0 (antibody, mouse IgG1, kappa)
heavy: QVQLQESGPGLVKPSETLSLTCAVSGHSISHDHAWSWVRQPPGEGLEWIGFISYSGITNYNPSLQGRVTISRDNSKNTLYLQMNSLRAEDTAVYYCARSLARTTAMDYWGEGTLVTVSSAKTTPPSVYPLAPGSAAQTNSMVTLGCLVKGYFPEPVTVTWNSGSLSSGVHTFPAVLQSDLYTLSSSVTVPSSTWPSETVTCNVAHPASSTKVDKKIVPRDCGCKPCICEPNEVEMVFIFPPKPKDVLTITLTPKVTCVVVDISKDDPEVQFSWFVDDVEVHTAQTQPREEQFNSTFRSVSELPIMHQDWLNGKEFKCRVNSDAFPAPIERTISKTKGRPKAPQVYTIPPPKEQMAKDKVSLTCMITDFFPEDITVEWQWNGQPAENYKNTQPIMDTDGSYFVYSKLNVQKSNWEAGNTFTCSVLHEGLHNHHTEKSLSHSPGK
light: not shown
notes: copies: 2 + 2
Consider B2, for which, in assay [1], the “relative mFcγRIII-binding activity (mIgG1 = 1)” value is 3.2 fold. The values for the Kd in assay [2] and in assay [3] were 0.76 nM and 87.2 nM, respectively.

B3: H237-MB548/MRAL-k0 (antibody, mouse IgG1, kappa)
heavy: QVQLQESGPGLVKPSETLSLTCAVSGHSISHDHAWSWVRQPPGEGLEWIGFISYSGITNYNPSLQGRVTISRDNSKNTLYLQMNSLRAEDTAVYYCARSLARTTAMDYWGEGTLVTVSSAKTTPPSVYPLAPGSAAQTNSMVTLGCLVKGYFPEPVTVTWNSGSLSSGVHTFPAVLQSDLYTLSSSVTVPSSTWPSETVTCNVAHPASSTKVDKKIVPRDCGCKPCICEPNEVEMVFIFPPKPKDVLTITLTPKVTCVVVDISKDDPEVQFSWFVDDVEVHTAQTQPREEQFNSTFRSVSELPIMHQDWLNGKEFKCRVDSDAFPAPIERTISKTKGRPKAPQVYTIPPPKEQMAKDKVSLTCMITDFFPEDITVEWQWNGQPAENYKNTQPIMDTDGSYFVYSKLNVQKSNWEAGNTFTCSVLHEGLHNHHTEKSLSHSPGK
light: not shown
notes: copies: 2 + 2
For B3, the “relative mFcγRIII-binding activity (mIgG1 = 1)” value in assay [1] was found to be 3.9 fold. The Kd came out at 0.589 nM in assay [2] and 71.7 nM in assay [3].

B4: H237-MB533/MRAL-k0 (antibody, mouse IgG1, kappa)
heavy: QVQLQESGPGLVKPSETLSLTCAVSGHSISHDHAWSWVRQPPGEGLEWIGFISYSGITNYNPSLQGRVTISRDNSKNTLYLQMNSLRAEDTAVYYCARSLARTTAMDYWGEGTLVTVSSAKTTPPSVYPLAPGSAAQTNSMVTLGCLVKGYFPEPVTVTWNSGSLSSGVHTFPAVLQSDLYTLSSSVTVPSSTWPSETVTCNVAHPASSTKVDKKIVPRDCGCKPCICQPNEVEEVFIFPPKPKDVLTITLTPKVTCVVVDISKDDPEVQFSWFVDDVEVHTAQTQPREEQFNLTFRSVSELPIMHQDWLNGKEFKCRVDSDAFPAPIEKTISKTKGRPKAPQVYTIPPPKEQMAKDKVSLTCMITDFFPEDITVEWQWNGQPAENYKNTQPIMDTDGSYFVYSKLNVQKSNWEAGNTFTCSVLHEGLHNHHTEKSLSHSPGK
light: not shown
notes: copies: 2 + 2
As to B4, the “relative mFcγRIII-binding activity (mIgG1 = 1)” value in assay [1] was 7.2 fold. The figures for the Kd in assay [2] and in assay [3] were 0.534 nM and 39 nM, respectively.

B5: H237-MB537/MRAL-k0 (antibody, mouse IgG1, kappa)
heavy: QVQLQESGPGLVKPSETLSLTCAVSGHSISHDHAWSWVRQPPGEGLEWIGFISYSGITNYNPSLQGRVTISRDNSKNTLYLQMNSLRAEDTAVYYCARSLARTTAMDYWGEGTLVTVSSAKTTPPSVYPLAPGSAAQTNSMVTLGCLVKGYFPEPVTVTWNSGSLSSGVHTFPAVLQSDLYTLSSSVTVPSSTWPSETVTCNVAHPASSTKVDKKIVPRDCGCKPCICQPNEVEEVFIFPPKPKDVLTITLTPKVTCVVVDISKDDPEVQFSWFVDDVEVHTAQTQPREEQFNLTFRSVSELPIMHQDWLNGKEFKCRVDSDAFPAPIERTISKTKGRPKAPQVYTIPPPKEQMAKDKVSLTCMITDFFPEDITVEWQWNGQPAENYKNTQPIMDTDGSYFVYSKLNVQKSNWEAGNTFTCSVLHEGLHNHHTEKSLSHSPGK
light: not shown
notes: copies: 2 + 2
For B5, the “relative mFcγRIII-binding activity (mIgG1 = 1)” value in assay [1] came to 8.9 fold. In addition, the Kd turned out to be 0.412 nM in assay [2] and 31.7 nM in assay [3].

B6: H237-MB534/MRAL-k0 (antibody, mouse IgG1, kappa)
heavy: QVQLQESGPGLVKPSETLSLTCAVSGHSISHDHAWSWVRQPPGEGLEWIGFISYSGITNYNPSLQGRVTISRDNSKNTLYLQMNSLRAEDTAVYYCARSLARTTAMDYWGEGTLVTVSSAKTTPPSVYPLAPGSAAQTNSMVTLGCLVKGYFPEPVTVTWNSGSLSSGVHTFPAVLQSDLYTLSSSVTVPSSTWPSETVTCNVAHPASSTKVDKKIVPRDCGCKPCICQPNEVEEVFIFPPKPKDVLTITLTPKVTCVVVDISKDDPEVQFSWFVDDVEVHTAQTQPREEQFNLTFRSVSELPIMHQDWLNGKEFKCRVDSAAFPAPIERTISKTKGRPKAPQVYTIPPPKEQMAKDKVSLTCMITDFFPEDITVEWQWNGQPAENYKNTQPIMDTDGSYFVYSKLNVQKSNWEAGNTFTCSVLHEGLHNHHTEKSLSHSPGK
light: not shown
notes: copies: 2 + 2
B6: the “relative mFcγRIII-binding activity (mIgG1 = 1)” value in assay [1] amounted to 33.8 fold. The values for the Kd in assay [2] and in assay [3] were 0.499 nM and 8.34 nM, respectively.

B7: H237-MB536/MRAL-k0 (antibody, mouse IgG1, kappa)
heavy: QVQLQESGPGLVKPSETLSLTCAVSGHSISHDHAWSWVRQPPGEGLEWIGFISYSGITNYNPSLQGRVTISRDNSKNTLYLQMNSLRAEDTAVYYCARSLARTTAMDYWGEGTLVTVSSAKTTPPSVYPLAPGSAAQTNSMVTLGCLVKGYFPEPVTVTWNSGSLSSGVHTFPAVLQSDLYTLSSSVTVPSSTWPSETVTCNVAHPASSTKVDKKIVPRDCGCKPCICQPNEVEEVFIFPPKPKDVLTITLTPKVTCVVVDISKDDPEVQFSWFVDDVEVHTAQTQPREEQFNSTFRSVSELPIMHQDWLNGKEFKCRVDSDAFPAPIERTISKTKGRPKAPQVYTIPPPKEQMAKDKVSLTCMITDFFPEDITVEWQWNGQPAENYKNTQPIMDTDGSYFVYSKLNVQKSNWEAGNTFTCSVLHEGLHNHHTEKSLSHSPGK
light: not shown
notes: copies: 2 + 2
With B7, the “relative mFcγRIII-binding activity (mIgG1 = 1)” value in assay [1] turned out to be 7.7 fold. Also, the Kd came out at 0.53 nM in assay [2] and 36.8 nM in assay [3].

B8: H237-MB542/MRAL-k0 (antibody, mouse IgG1, kappa)
heavy: QVQLQESGPGLVKPSETLSLTCAVSGHSISHDHAWSWVRQPPGEGLEWIGFISYSGITNYNPSLQGRVTISRDNSKNTLYLQMNSLRAEDTAVYYCARSLARTTAMDYWGEGTLVTVSSAKTTPPSVYPLAPGSAAQTNSMVTLGCLVKGYFPEPVTVTWNSGSLSSGVHTFPAVLQSDLYTLSSSVTVPSSTWPSETVTCNVAHPASSTKVDKKIVPRDCGCKPCICEPNEVEMVFIFPPKPKDVLTITLTPKVTCVVVDISKDDPEVQFSWFVDDVEVHTAQTQPREEQFNSTFRSVSELPIMHQDWLNGKEFKCRVDSDAFPAPIEKTISKTKGRPKAPQVYTIPPPKEQMAKDKVSLTCMITDFFPEDITVEWQWNGQPAENYKNTQPIMDTDGSYFVYSKLNVQKSNWEAGNTFTCSVLHEGLHNHHTEKSLSHSPGK
light: not shown
notes: copies: 2 + 2
With B8, in assay [1], the “relative mFcγRIII-binding activity (mIgG1 = 1)” value was found to be 3.4 fold. Further, the Kd is 0.547 nM in assay [2] and 83.3 nM in assay [3].

B9: H237-MB535/MRAL-k0 (antibody, mouse IgG1, kappa)
heavy: QVQLQESGPGLVKPSETLSLTCAVSGHSISHDHAWSWVRQPPGEGLEWIGFISYSGITNYNPSLQGRVTISRDNSKNTLYLQMNSLRAEDTAVYYCARSLARTTAMDYWGEGTLVTVSSAKTTPPSVYPLAPGSAAQTNSMVTLGCLVKGYFPEPVTVTWNSGSLSSGVHTFPAVLQSDLYTLSSSVTVPSSTWPSETVTCNVAHPASSTKVDKKIVPRDCGCKPCICQPNEVEEVFIFPPKPKDVLTITLTPKVTCVVVDISKDDPEVQFSWFVDDVEVHTAQTQPREEQFNLTFRSVSELPIMHQDWLNGKEFKCRVNSDAFPAPIERTISKTKGRPKAPQVYTIPPPKEQMAKDKVSLTCMITDFFPEDITVEWQWNGQPAENYKNTQPIMDTDGSYFVYSKLNVQKSNWEAGNTFTCSVLHEGLHNHHTEKSLSHSPGK
light: not shown
notes: copies: 2 + 2
B9: the “relative mFcγRIII-binding activity (mIgG1 = 1)” value in assay [1] was 8.5 fold. In addition, the Kd amounted to 0.498 nM in assay [2] and 33.2 nM in assay [3].
